Numbering of substitutions follows the chain as printed. Numbers in names are those of the source. Each block holds one binder with its values, some of them ahead of it.
Legend:
[1] = target: T1, rHuman EGF R/Fc Chimera, CF (R&D Systems Cat#344-ER) (human, UniProt P00533 25-645); experiment: MSD Multispot ECL, antigen spotted on plate, Fab in solution; blank spot of the row 240
T1 construct: Bought recombinant Fc chimera; also called epidermal growth factor receptor; Fc part of the bought chimera not given

[2] = target: T2, rHuman HGF R/c-MET/Fc Chimera, CF (R&D Systems Cat#358-MT/CF) (human, UniProt P08581 25-932); experiment: as above
T2 construct: Bought recombinant Fc chimera; also called HGF R/Fc; hepatocyte growth factor receptor; Fc part of the bought chimera not given

[3] = target: T3, rHuman Notch-1/Fc Chimera, CF (R&D Systems Cat#3647-TK) (human, UniProt P46531 19-526); experiment: as above
T3 construct: Bought recombinant Fc chimera; Fc part of the bought chimera not given

[4] = target: T4, rHuman P-Cadherin/Fc Chimera, CF (R&D Systems Cat#861-PC) (human, UniProt P22223 108-654); experiment: as above
T4 construct: Bought recombinant Fc chimera; Fc part of the bought chimera not given

[5] = target: T5, rHuman Erythropoietin R/Fc Chimera, CF (R&D Systems Cat#963-ER) (human, UniProt P19235 25-250); experiment: as above
T5 construct: Bought recombinant Fc chimera; also called EPO R; EPO R/Fc; Fc part of the bought chimera not given
T5 sequence (looked up): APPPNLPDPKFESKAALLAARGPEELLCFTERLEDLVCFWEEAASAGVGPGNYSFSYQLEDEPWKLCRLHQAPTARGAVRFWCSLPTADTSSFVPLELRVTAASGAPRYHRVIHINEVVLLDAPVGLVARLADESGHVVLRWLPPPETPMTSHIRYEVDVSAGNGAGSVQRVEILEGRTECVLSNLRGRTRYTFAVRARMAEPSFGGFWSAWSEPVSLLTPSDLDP

[6] = target: T6, Recombinant Human DLL4 (R&D Systems Cat#1506-D4/CF) (human, UniProt Q9NR61 27-524); experiment: as above
T6 construct: Bought recombinant protein; also called delta-like protein 4; Delta-like 4

[7] = target: T1, rHuman EGF R/Fc Chimera, CF (R&D …); experiment: MSD Multispot ECL, antigen spotted on plate, Fab in solution; blank spot of the row 424
[8] = target: T2, rHuman HGF R/c-MET/Fc Chimera, CF (R&D …); experiment: as above
[9] = target: T3, rHuman Notch-1/Fc Chimera, CF (R&D …); experiment: as above
[10] = target: T4, rHuman P-Cadherin/Fc Chimera, CF (R&D …); experiment: as above
[11] = target: T5, rHuman Erythropoietin R/Fc Chimera, CF …; experiment: as above
[12] = target: T6, Recombinant Human DLL4 (R&D Systems …); experiment: as above
[13] = target: T7, Recombinant Human DLL4 (delta-like protein 4) (human, UniProt Q9NR61 27-524); experiment: ELISA, DLL4 coated on plate
T7 construct: Bought recombinant protein (R&D Systems Cat#1506-D4/CF); also called rHuman DLL4

[14] = target: T8, rHuman Notch-1/Fc Chimera (human, UniProt P46531 19-526); experiment: ECL (MSD) multispot assay, antigen spotted; blank spot of this row 424
T8 construct: R&D Systems Cat#3647-TK; not shown: Fc of the bought R&D Systems chimera

rHuman CD44/Fc Chimera [15] = target: T9, rHuman CD44/Fc Chimera (human, UniProt P16070 21-220); experiment: as above
T9 construct: not shown: Fc of the bought R&D Systems chimera

[16] = target: T10, rHuman P-Cadherin/Fc Chimera (human, UniProt P22223 108-654); experiment: as above
T10 construct: R&D Systems Cat#861-PC; not shown: Fc of the bought R&D Systems chimera

[17] = target: T11, rHuman Erythropoietin R/Fc Chimera (human, UniProt P19235 25-250); experiment: as above
T11 construct: also called EPO R; EPO R/Fc; not shown: Fc of the bought R&D Systems chimera
T11 sequence (looked up): T5 sequence (looked up)

[18] = target: T7, Recombinant Human DLL4 (delta-like …); experiment: as above
rHuman ErbB2/Fc Chimera [19] = target: T12, rHuman ErbB2/Fc Chimera (human, UniProt P04626 23-652); experiment: as above
T12 construct: not shown: Fc of the bought R&D Systems chimera

rHuman EGF R/Fc Chimera [20] = target: T13, rHuman EGF R/Fc Chimera (human, UniProt P00533 25-645); experiment: as above
T13 construct: not shown: Fc of the bought R&D Systems chimera

[21] = target: T7, Recombinant Human DLL4 (delta-like …); experiment: ECL (MSD) multispot binding assay; value equals DLL4 signal over blank of Table 91
[22] = target: T14, Recombinant Human DLL4 (R&D Systems Cat#1506-D4/CF) (human, UniProt Q9NR61 27-524); experiment: ECL (MSD) multispot binding assay, antigen spotted on the plate, Fab in solution; blank spot of this well 213
T14 construct: Bought recombinant protein; also called rHuman DLL4; delta-like protein 4

[23] = target: T15, rHuman P-Cadherin/Fc Chimera, CF (R&D Systems Cat#861-PC) (human, UniProt P22223 108-654); experiment: as above
T15 construct: Bought reagent; Fc part of the bought chimera not given

[24] = target: T16, rHuman Erythropoietin R/Fc Chimera, CF (R&D Systems Cat#963-ER) (human, UniProt P19235 25-250); experiment: as above
T16 construct: Bought reagent; also called EPO R/Fc; EPO R; Fc part of the bought chimera not given
T16 sequence (looked up): T5 sequence (looked up)

[25] = target: T8, rHuman Notch-1/Fc Chimera; experiment: ECL (MSD) multispot assay, antigen spotted; blank spot of this row 284
rHuman CD44/Fc Chimera [26] = target: T9, rHuman CD44/Fc Chimera; experiment: as above
[27] = target: T10, rHuman P-Cadherin/Fc Chimera; experiment: as above
[28] = target: T7, Recombinant Human DLL4 (delta-like …); experiment: as above
rHuman ErbB2/Fc Chimera [29] = target: T12, rHuman ErbB2/Fc Chimera; experiment: as above
rHuman EGF R/Fc Chimera [30] = target: T13, rHuman EGF R/Fc Chimera; experiment: as above
[31] = target: T8, rHuman Notch-1/Fc Chimera; experiment: ECL (MSD) multispot assay, antigen spotted; blank spot of this row 223
[32] = target: T10, rHuman P-Cadherin/Fc Chimera; experiment: as above
rHuman EGF R/Fc Chimera [33] = target: T13, rHuman EGF R/Fc Chimera; experiment: as above
[34] = target: T10, rHuman P-Cadherin/Fc Chimera; experiment: ECL (MSD) multispot assay, antigen spotted; blank spot of this row 236
[35] = target: T7, Recombinant Human DLL4 (delta-like …); experiment: as above
rHuman EGF R/Fc Chimera [36] = target: T13, rHuman EGF R/Fc Chimera; experiment: as above

T2 sequence (P08581 25-932, change not shown): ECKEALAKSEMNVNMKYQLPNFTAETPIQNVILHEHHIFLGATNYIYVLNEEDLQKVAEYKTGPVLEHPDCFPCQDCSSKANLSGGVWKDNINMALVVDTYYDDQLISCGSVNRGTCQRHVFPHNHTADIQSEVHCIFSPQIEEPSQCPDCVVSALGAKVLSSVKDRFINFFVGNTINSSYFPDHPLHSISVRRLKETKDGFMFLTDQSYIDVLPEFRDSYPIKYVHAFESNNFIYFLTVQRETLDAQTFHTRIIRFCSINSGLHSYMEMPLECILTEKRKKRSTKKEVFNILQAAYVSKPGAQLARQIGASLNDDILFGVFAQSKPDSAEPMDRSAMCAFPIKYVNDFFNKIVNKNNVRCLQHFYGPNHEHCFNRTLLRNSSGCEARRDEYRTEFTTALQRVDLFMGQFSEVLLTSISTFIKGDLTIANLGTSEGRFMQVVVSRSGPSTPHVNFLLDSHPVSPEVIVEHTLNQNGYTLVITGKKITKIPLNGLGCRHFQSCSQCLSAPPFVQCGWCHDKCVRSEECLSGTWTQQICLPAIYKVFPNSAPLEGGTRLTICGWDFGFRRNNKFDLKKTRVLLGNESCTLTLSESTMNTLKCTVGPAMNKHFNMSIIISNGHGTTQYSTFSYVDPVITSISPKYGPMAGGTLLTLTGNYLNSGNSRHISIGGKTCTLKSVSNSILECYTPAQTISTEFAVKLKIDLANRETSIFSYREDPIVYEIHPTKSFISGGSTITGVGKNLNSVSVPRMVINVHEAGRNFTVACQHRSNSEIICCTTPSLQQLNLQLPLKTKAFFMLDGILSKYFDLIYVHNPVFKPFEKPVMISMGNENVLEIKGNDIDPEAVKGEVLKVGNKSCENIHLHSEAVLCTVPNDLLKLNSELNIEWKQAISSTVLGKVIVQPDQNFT

ECL signal [1]: 915 | ECL signal [2]: 936 | ECL signal [3]: 507 | ECL signal [4]: 346 | ECL signal [5]: 497 | ECL signal [6]: 45100 | ECL signal [7]: 852 | ECL signal [8]: 838 | ECL signal [9]: 543 | ECL signal [10]: 319 | ECL signal [11]: 554 | ECL signal [12]: 36400
B1: Fab VH5-51_IGHD5-18*01>3_IGHJ4*01 G100K/G104T (KT) & V3-4_IGLJ1*01 (Fab, V domains shown)
VH: EVQLVQSGAEVKKPGESLKISCKGSGYSFTSYWIGWVRQMPGKGLEWMGIIYPGDSDTRYSPSFQGQVTISADKSISTAYLQWSSLKASDTAMYYCARRKYSYTYDYFDYWGQGTLVTVSS
VL: QTVVTQEPSFSVSPGGTVTLTCGLSSGSVSTSYYPSWYQQTPGQAPRTLIYSTNTRSSGVPDRFSGSILGNKAALTITGAQADDESDYYCVLYMGSGISYVFGTGTKVTVL
notes: Fab made in E. coli; VH cloned into Plasmid A (CH1, His6 and Flag tags), lambda VL into Plasmid E (lambda CL); also called H:KT & L:wt; KT double mutant

ELISA (Signal-Noise) [13]: 0 | ECL signal [14]: 543 | ECL signal (rHuman CD44/Fc Chimera [15]): 579 | ECL signal [16]: 319 | ECL signal [17]: 554 | ECL signal [18]: 36400 | ECL signal (rHuman ErbB2/Fc Chimera [19]): 1100 | ECL signal (rHuman EGF R/Fc Chimera [20]): 852 | ECL signal-to-blank ratio [21]: 85.9
B2: Fab VH5-51_IGHD5-18*01>3_IGHJ4*01 G100K/G104T & V3-4_IGLJ1*01 (Fab, V domains shown)
VH: B1 VH
VL: B1 VL
notes: Fab made in E. coli (heavy chain vector with CH1, His6 and Flag tags; lambda CL vector); also called KT; H:KT

ECL signal [22]: 32700 | ECL signal [23]: 226 | ECL signal [24]: 421
B3: Fab VH5-51_IGHD5-18*01>3_IGHJ4*01 G100K/G104T (KT) & V3-4_IGLJ1*01 (Fab, V domains shown)
VH: B1 VH
VL: B1 VL
notes: Tested as a Fab expressed in E. coli; The heavy chain variable region was cloned into Plasmid A (CH1 constant region, His6 and Flag tags); The lambda light chain variable region was cloned into Plasmid E (lambda CL); also called H:KT & L:wt; KT double mutant

ELISA (Signal-Noise) [13]: 0 | ECL signal [25]: 443 | ECL signal (rHuman CD44/Fc Chimera [26]): 538 | ECL signal [27]: 406 | ECL signal [28]: 21800 | ECL signal (rHuman ErbB2/Fc Chimera [29]): 1100 | ECL signal (rHuman EGF R/Fc Chimera [30]): 791 | ECL signal-to-blank ratio [21]: 76.8
B4: Fab VH5-51_IGHD5-18*01>3_IGHJ4*01 G100K/G104T D109A & V3-4_IGLJ1*01 (Fab, V domains shown)
VH: B1 VH with D109A
VL: B1 VL
notes: Fab made in E. coli (heavy chain vector with CH1, His6 and Flag tags; lambda CL vector)

ECL signal [31]: 410 | ECL signal [32]: 320 | ECL signal (rHuman EGF R/Fc Chimera [33]): 864
B5: Fab VH5-51_IGHD5-18*01>3_IGHJ4*01 G100K/G104T S84L & V3-4_IGLJ1*01 (Fab, V domains shown)
VH: B1 VH with S84L
VL: B1 VL
notes: as for B4

ELISA (Signal-Noise) [13]: 0.02 | ECL signal [34]: 362 | ECL signal [35]: 8890 | ECL signal (rHuman EGF R/Fc Chimera [36]): 805 | ECL signal-to-blank ratio [21]: 37.7
B6: Fab VH5-51_IGHD5-18*01>3_IGHJ4*01 G100K/G104T S84V & V3-4_IGLJ1*01 (Fab, V domains shown)
VH: B1 VH with S84V
VL: B1 VL
notes: as for B4

Reference: US20120316071A1 (published 2012)
